Assay results reported in paper PMC10786891, “Massively parallel profiling of RNA-targeting CRISPR-Cas13d”.

T1: EsCas13d, nuclease-dead (Eubacterium siraeum, UniProt B0MS50, R295A;H300A;R849A;H854A)
T1 sequence: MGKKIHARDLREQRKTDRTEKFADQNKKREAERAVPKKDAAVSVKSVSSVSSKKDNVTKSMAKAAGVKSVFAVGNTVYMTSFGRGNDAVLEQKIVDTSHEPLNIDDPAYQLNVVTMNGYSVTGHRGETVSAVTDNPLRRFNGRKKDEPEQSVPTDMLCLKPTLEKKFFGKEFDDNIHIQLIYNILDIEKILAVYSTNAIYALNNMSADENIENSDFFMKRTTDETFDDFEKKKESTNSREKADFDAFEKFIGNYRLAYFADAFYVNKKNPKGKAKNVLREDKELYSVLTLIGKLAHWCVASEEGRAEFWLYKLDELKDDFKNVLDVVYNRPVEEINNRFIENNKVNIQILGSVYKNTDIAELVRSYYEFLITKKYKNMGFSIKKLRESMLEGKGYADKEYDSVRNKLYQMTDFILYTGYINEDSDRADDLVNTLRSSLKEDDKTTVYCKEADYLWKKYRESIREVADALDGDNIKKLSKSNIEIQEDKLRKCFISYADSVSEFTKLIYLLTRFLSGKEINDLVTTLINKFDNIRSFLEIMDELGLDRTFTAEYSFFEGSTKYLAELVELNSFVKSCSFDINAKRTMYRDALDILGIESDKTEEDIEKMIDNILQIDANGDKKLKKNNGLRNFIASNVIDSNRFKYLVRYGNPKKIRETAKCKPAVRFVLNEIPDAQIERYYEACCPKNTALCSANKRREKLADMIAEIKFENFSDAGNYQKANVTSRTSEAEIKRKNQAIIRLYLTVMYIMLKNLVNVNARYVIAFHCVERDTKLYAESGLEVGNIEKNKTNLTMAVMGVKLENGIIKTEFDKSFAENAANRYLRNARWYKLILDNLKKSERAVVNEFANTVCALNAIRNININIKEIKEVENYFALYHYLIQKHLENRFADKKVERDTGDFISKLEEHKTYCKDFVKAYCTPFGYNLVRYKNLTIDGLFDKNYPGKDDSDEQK

B1: target 1 del11,del22 (mixed)
RNA 1: CACCCGUGCAAAAAUGCAGGGGUCUAAAACUGAGCGGAUAACCUCUCUAUGG
RNA 2: GGGAAUGGAUCCACAUCUACGAAUUCGUACAUAGAGAGGUAUCCGCUCACCGAGAUCGGAAGAGCACACGU
B2: target 1 insG 3' of 19,insU 3' of 4 (mixed)
RNA 1: CACCCGUGCAAAAAUGCAGGGGUCUAAAACUGAGCGGAUAACCUCUCUAUGG
RNA 2: GGGAAUGGAUCCACAUCUACGAAUUCGUACCAUGAGAGAGGUUAUCCGCUUCACCGAGAUCGGAAGAGCACACGU
B3: target 1 A1U,U8C (mixed)
RNA 1: CACCCGUGCAAAAAUGCAGGGGUCUAAAACUGAGCGGAUAACCUCUCUAUGG
RNA 2: GGGAAUGGAUCCACAUCUACGAAUUCGUACCAUAGAGAGGUUACCCGCUCUCCGAGAUCGGAAGAGCACACGU
B4: target 1 A1C,U8C (mixed)
RNA 1: CACCCGUGCAAAAAUGCAGGGGUCUAAAACUGAGCGGAUAACCUCUCUAUGG
RNA 2: GGGAAUGGAUCCACAUCUACGAAUUCGUACCAUAGAGAGGUUACCCGCUCCCCGAGAUCGGAAGAGCACACGU
B5: target 1 insA 3' of 5 (mixed)
RNA 1: CACCCGUGCAAAAAUGCAGGGGUCUAAAACUGAGCGGAUAACCUCUCUAUGG
RNA 2: GGGAAUGGAUCCACAUCUACGAAUUCGUACCAUAGAGAGGUUAUCCGACUCACCGAGAUCGGAAGAGCACACGU
B6: target 1 insG 3' of 10,insC 3' of 9 (mixed)
RNA 1: CACCCGUGCAAAAAUGCAGGGGUCUAAAACUGAGCGGAUAACCUCUCUAUGG
RNA 2: GGGAAUGGAUCCACAUCUACGAAUUCGUACCAUAGAGAGGUUGACUCCGCUCACCGAGAUCGGAAGAGCACACGU
B7: target 1 G5C,U19G (mixed)
RNA 1: CACCCGUGCAAAAAUGCAGGGGUCUAAAACUGAGCGGAUAACCUCUCUAUGG
RNA 2: GGGAAUGGAUCCACAUCUACGAAUUCGUACCAGAGAGAGGUUAUCCCCUCACCGAGAUCGGAAGAGCACACGU
B8: target 1 complement block 3-5 (mixed)
RNA 1: CACCCGUGCAAAAAUGCAGGGGUCUAAAACUGAGCGGAUAACCUCUCUAUGG
RNA 2: GGGAAUGGAUCCACAUCUACGAAUUCGUACCAUAGAGAGGUUAUCCCGACACCGAGAUCGGAAGAGCACACGU
B9: target 1 insC 3' of 14,insG 3' of 7 (mixed)
RNA 1: CACCCGUGCAAAAAUGCAGGGGUCUAAAACUGAGCGGAUAACCUCUCUAUGG
RNA 2: GGGAAUGGAUCCACAUCUACGAAUUCGUACCAUAGAGACGGUUAUCGCGCUCACCGAGAUCGGAAGAGCACACGU
B10: target 1 del3,del17 (mixed)
RNA 1: CACCCGUGCAAAAAUGCAGGGGUCUAAAACUGAGCGGAUAACCUCUCUAUGG
RNA 2: GGGAAUGGAUCCACAUCUACGAAUUCGUACCAUAAGAGGUUAUCCGCCACCGAGAUCGGAAGAGCACACGU
B11: target 1 C6A,G13A (mixed)
RNA 1: CACCCGUGCAAAAAUGCAGGGGUCUAAAACUGAGCGGAUAACCUCUCUAUGG
RNA 2: GGGAAUGGAUCCACAUCUACGAAUUCGUACCAUAGAGAAGUUAUCAGCUCACCGAGAUCGGAAGAGCACACGU
B12: target 1 C6G,U11G (mixed)
RNA 1: CACCCGUGCAAAAAUGCAGGGGUCUAAAACUGAGCGGAUAACCUCUCUAUGG
RNA 2: GGGAAUGGAUCCACAUCUACGAAUUCGUACCAUAGAGAGGGUAUCGGCUCACCGAGAUCGGAAGAGCACACGU
B13: target 1 insC 3' of 13,insA 3' of 2 (mixed)
RNA 1: CACCCGUGCAAAAAUGCAGGGGUCUAAAACUGAGCGGAUAACCUCUCUAUGG
RNA 2: GGGAAUGGAUCCACAUCUACGAAUUCGUACCAUAGAGAGCGUUAUCCGCUCAACCGAGAUCGGAAGAGCACACGU
B14: target 1 U8C (mixed)
RNA 1: CACCCGUGCAAAAAUGCAGGGGUCUAAAACUGAGCGGAUAACCUCUCUAUGG
RNA 2: GGGAAUGGAUCCACAUCUACGAAUUCGUACCAUAGAGAGGUUACCCGCUCACCGAGAUCGGAAGAGCACACGU
B15: target 1 insC 3' of 17,insC 3' of 13 (mixed)
RNA 1: CACCCGUGCAAAAAUGCAGGGGUCUAAAACUGAGCGGAUAACCUCUCUAUGG
RNA 2: GGGAAUGGAUCCACAUCUACGAAUUCGUACCAUAGCAGAGCGUUAUCCGCUCACCGAGAUCGGAAGAGCACACGU
B16: target 1 U19C,C22U (mixed)
RNA 1: CACCCGUGCAAAAAUGCAGGGGUCUAAAACUGAGCGGAUAACCUCUCUAUGG
RNA 2: GGGAAUGGAUCCACAUCUACGAAUUCGUAUCACAGAGAGGUUAUCCGCUCACCGAGAUCGGAAGAGCACACGU
B17: target 1 insC 3' of 13,insC 3' of 1 (mixed)
RNA 1: CACCCGUGCAAAAAUGCAGGGGUCUAAAACUGAGCGGAUAACCUCUCUAUGG
RNA 2: GGGAAUGGAUCCACAUCUACGAAUUCGUACCAUAGAGAGCGUUAUCCGCUCACCCGAGAUCGGAAGAGCACACGU
B18: target 1 G12A,A16G (mixed)
RNA 1: CACCCGUGCAAAAAUGCAGGGGUCUAAAACUGAGCGGAUAACCUCUCUAUGG
RNA 2: GGGAAUGGAUCCACAUCUACGAAUUCGUACCAUAGGGAGAUUAUCCGCUCACCGAGAUCGGAAGAGCACACGU
B19: target 1 insU 3' of 12,insA 3' of 12 (mixed)
RNA 1: CACCCGUGCAAAAAUGCAGGGGUCUAAAACUGAGCGGAUAACCUCUCUAUGG
RNA 2: GGGAAUGGAUCCACAUCUACGAAUUCGUACCAUAGAGAGGUAUUAUCCGCUCACCGAGAUCGGAAGAGCACACGU
B20: target 1 insU 3' of 20,insU 3' of 20 (mixed)
RNA 1: CACCCGUGCAAAAAUGCAGGGGUCUAAAACUGAGCGGAUAACCUCUCUAUGG
RNA 2: GGGAAUGGAUCCACAUCUACGAAUUCGUACCAUUUAGAGAGGUUAUCCGCUCACCGAGAUCGGAAGAGCACACGU
B21: target 1 insG 3' of 4,insG 3' of 4 (mixed)
RNA 1: CACCCGUGCAAAAAUGCAGGGGUCUAAAACUGAGCGGAUAACCUCUCUAUGG
RNA 2: GGGAAUGGAUCCACAUCUACGAAUUCGUACCAUAGAGAGGUUAUCCGCGGUCACCGAGAUCGGAAGAGCACACGU
B22: target 1 insA 3' of 19,insC 3' of 11 (mixed)
RNA 1: CACCCGUGCAAAAAUGCAGGGGUCUAAAACUGAGCGGAUAACCUCUCUAUGG
RNA 2: GGGAAUGGAUCCACAUCUACGAAUUCGUACCAUAAGAGAGGUCUAUCCGCUCACCGAGAUCGGAAGAGCACACGU
B23: target 1 insA 3' of 19,insG 3' of 8 (mixed)
RNA 1: CACCCGUGCAAAAAUGCAGGGGUCUAAAACUGAGCGGAUAACCUCUCUAUGG
RNA 2: GGGAAUGGAUCCACAUCUACGAAUUCGUACCAUAAGAGAGGUUAUGCCGCUCACCGAGAUCGGAAGAGCACACGU
B24: target 1 A1U,U11A (mixed)
RNA 1: CACCCGUGCAAAAAUGCAGGGGUCUAAAACUGAGCGGAUAACCUCUCUAUGG
RNA 2: GGGAAUGGAUCCACAUCUACGAAUUCGUACCAUAGAGAGGAUAUCCGCUCUCCGAGAUCGGAAGAGCACACGU
B25: target 1 insC 3' of 13,insU 3' of 1 (mixed)
RNA 1: CACCCGUGCAAAAAUGCAGGGGUCUAAAACUGAGCGGAUAACCUCUCUAUGG
RNA 2: GGGAAUGGAUCCACAUCUACGAAUUCGUACCAUAGAGAGCGUUAUCCGCUCAUCCGAGAUCGGAAGAGCACACGU
B26: target 1 G5A,U8G (mixed)
RNA 1: CACCCGUGCAAAAAUGCAGGGGUCUAAAACUGAGCGGAUAACCUCUCUAUGG
RNA 2: GGGAAUGGAUCCACAUCUACGAAUUCGUACCAUAGAGAGGUUAGCCACUCACCGAGAUCGGAAGAGCACACGU
B27: target 1 A1G,U8C (mixed)
RNA 1: CACCCGUGCAAAAAUGCAGGGGUCUAAAACUGAGCGGAUAACCUCUCUAUGG
RNA 2: GGGAAUGGAUCCACAUCUACGAAUUCGUACCAUAGAGAGGUUACCCGCUCGCCGAGAUCGGAAGAGCACACGU
B28: target 1 insC 3' of 13,insG 3' of 1 (mixed)
RNA 1: CACCCGUGCAAAAAUGCAGGGGUCUAAAACUGAGCGGAUAACCUCUCUAUGG
RNA 2: GGGAAUGGAUCCACAUCUACGAAUUCGUACCAUAGAGAGCGUUAUCCGCUCAGCCGAGAUCGGAAGAGCACACGU

Target: T1, EsCas13d, nuclease-dead
Assay: crRNA (strand 1, pre-loaded); Mg2+; 40 mM Tris-HCl pH 7.5, 150 mM NaCl, 6 mM MgCl2, 1 mM DTT, 0.1% Tween-20, 0.2 mg/ml BSA; 25 C; 10 min per concentration, then washed
Details: tags: His6-TwinStrep-SUMO cleaved; N-terminal SNAP kept (SNAP-Surface 488); label: 3' end held by stalled T7 RNA polymerase

Row | Binder | Kd [nM]
1 | B1 | 78 ± 33
2 | B2 | 53 ± 6
3 | B3 | 11.2 ± 0.5
4 | B4 | 8.1 ± 0.4
5 | B5 | 6.2 ± 0.4
6 | B6 | 14.9 ± 0.6
7 | B7 | 30 ± 4
8 | B8 | 10.5 ± 1
9 | B9 | 41 ± 8
10 | B10 | 67 ± 17
11 | B11 | 6.6 ± 0.4
12 | B12 | 9.6 ± 0.5
13 | B13 | 9 ± 0.5
14 | B14 | 11.2 ± 0.4
15 | B15 | 48 ± 7
16 | B16 | 45 ± 6
17 | B17 | 8.9 ± 0.6
18 | B18 | 48 ± 5
19 | B19 | 10.1 ± 0.5
20 | B20 | 13.5 ± 1
21 | B21 | 5.72 ± 0.26
22 | B22 | 100 ± 40
23 | B23 | 32.7 ± 2.3
24 | B24 | 37.8 ± 3
25 | B25 | 11.5 ± 1.1
26 | B26 | 38 ± 2.4
27 | B27 | 10.2 ± 0.9
28 | B28 | 9.17 ± 0.3
